# Experimental data: PMC3815026, “Serglycin Is Implicated in the Promotion of Aggressive Phenotype of Breast Cancer Cells” (PLoS ONE, 2013)
# Experiments:
# [1] = target: T1, mannose-binding lectin (UniProt P11226 21-248); test: ELISA; solid phase binding assay: microtiter plates coated with 5 µg/ml serglycin (as GAG content), blocked with 1% BSA; C1q or MBL added at increasing concentrations in 50 mM Hepes pH 7.4, 150 mM NaCl, 2 mM CaCl2, 1 h at RT; bound protein detected with antibodies; KD from the slope of a Scatchard-type plot; conditions: both partners purified
# T1 construct: Neither the species nor the oligomeric state is stated; Human MBL is surmised; also called MBL; source: bought: Statens Serum Institute (Denmark)
# T1 sequence (P11226 21-248): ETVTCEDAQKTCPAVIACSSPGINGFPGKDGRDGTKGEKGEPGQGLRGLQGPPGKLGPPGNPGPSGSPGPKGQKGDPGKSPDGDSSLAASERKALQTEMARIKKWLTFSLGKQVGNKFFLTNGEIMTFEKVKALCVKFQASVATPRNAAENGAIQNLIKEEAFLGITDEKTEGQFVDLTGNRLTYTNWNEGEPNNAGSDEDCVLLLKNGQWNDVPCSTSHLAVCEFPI
# [2] = target: T2, C1q (UniProt P02745 23-245; P02746 28-253; P02747 29-245); test: as above; conditions: both partners purified
# T2 construct: complement C1q subcomponent subunit A; complement C1q subcomponent subunit B; complement C1q subcomponent subunit C; also called complement component C1q; purified C1q; source: bought: Sigma-Aldrich; copies: + +
# T2 sequence (P02745 23-245, chain 1 of 3): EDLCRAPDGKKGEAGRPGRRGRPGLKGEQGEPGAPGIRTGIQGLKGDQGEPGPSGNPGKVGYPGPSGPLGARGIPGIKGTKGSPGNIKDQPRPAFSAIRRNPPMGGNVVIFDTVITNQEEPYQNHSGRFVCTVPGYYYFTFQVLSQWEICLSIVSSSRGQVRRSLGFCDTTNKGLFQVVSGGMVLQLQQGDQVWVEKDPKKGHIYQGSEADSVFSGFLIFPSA
# T2 sequence (P02746 28-253, chain 2 of 3): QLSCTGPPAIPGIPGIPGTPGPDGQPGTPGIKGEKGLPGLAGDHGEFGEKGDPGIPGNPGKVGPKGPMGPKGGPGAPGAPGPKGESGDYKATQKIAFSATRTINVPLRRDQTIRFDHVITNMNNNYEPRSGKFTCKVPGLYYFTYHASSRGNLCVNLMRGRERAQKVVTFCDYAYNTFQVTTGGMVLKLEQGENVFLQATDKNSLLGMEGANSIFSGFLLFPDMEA
# T2 sequence (P02747 29-245, chain 3 of 3): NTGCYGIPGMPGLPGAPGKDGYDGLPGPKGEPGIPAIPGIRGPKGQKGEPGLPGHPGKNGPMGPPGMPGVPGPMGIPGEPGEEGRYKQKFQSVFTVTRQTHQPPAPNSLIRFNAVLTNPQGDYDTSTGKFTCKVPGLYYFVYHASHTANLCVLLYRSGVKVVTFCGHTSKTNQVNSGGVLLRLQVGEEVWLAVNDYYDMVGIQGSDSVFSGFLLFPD
binder,measurement,setting,value
"Serglycin isolated from conditioned medium of MDA-MB-231 breast cancer cells (total glycanated serglycin) (natural protein, human (endogenous in MDA-MB-231), UniProt P10124 28-158, looked up, chondroitin sulfate side chains (4-sulfated 87%, 6-sulfated 10%, non-sulfated 3% disaccharides), serglycin core protein, secreted proteoglycan of ~250-300 kDa, core protein seen at ~28 kDa after chondroitinase ABC; Proteoglycan: GAG content about 94.5% and core protein about 5.5% of the total mass; also called SG; breast cancer-derived serglycin; source: endogenous, secreted by MDA-MB-231 cells; purified from culture medium (DEAE-Sephacel, Sepharose CL-4B)) YPTRRARYQWVRCNPDSNSANCLEEKGPMFELLPGESNKIPRLRTDLFPKTRIQDLNRIFPLSEDYSGSGFGSGSGSGSGSGSGFLTEMEQDYQLVDESDAFHDNLRSLDRNLPSDSQDLGQHGLEEDFML",Kd,[1],48 nM
same,Kd,[2],20 nM
